This note sets out measurements from paper PMC4017622.

In data set [1] the target is T1, Pf-SSB (wild type, lacks apicoplast localization signal) (Plasmodium falciparum 3D7, UniProt Q8I415 77-284). Nature of the data set: Trp fluorescence quenching titration.
The target of data set [2] is T1, Pf-SSB (wild type, lacks apicoplast …). Nature of the data set: Trp fluorescence quenching titration. This is another data set of the same source.
Data set [3] has as its target Pf-SSB crystallized form (Plasmodium falciparum 3D7, UniProt Q8I415 77-194). Nature of the data set: X-ray crystallography.

Read-outs that look alike come from different tables or passages of the source.

B1: (dT)70 (ssDNA)
DNA: TTTTTTTTTTTTTTTTTTTTTTTTTTTTTTTTTTTTTTTTTTTTTTTTTTTTTTTTTTTTTTTTTTTTTT
For B1, in data set [1], the binding result was “binds”.
For TTTTTTTTTTTTTTTTTTTTTTTTTTTTTTTTTTT (ssDNA) [(dT)35], the binding result in data set [2] and in data set [3] was “binds” in each case.
